The target of experiment [1] is T1, HA Nercc (full-length Nercc1 with HA epitope tag) (human, UniProt Q8TD19 1-979).
T1 construct: also called HA Nercc FL
T1 sequence: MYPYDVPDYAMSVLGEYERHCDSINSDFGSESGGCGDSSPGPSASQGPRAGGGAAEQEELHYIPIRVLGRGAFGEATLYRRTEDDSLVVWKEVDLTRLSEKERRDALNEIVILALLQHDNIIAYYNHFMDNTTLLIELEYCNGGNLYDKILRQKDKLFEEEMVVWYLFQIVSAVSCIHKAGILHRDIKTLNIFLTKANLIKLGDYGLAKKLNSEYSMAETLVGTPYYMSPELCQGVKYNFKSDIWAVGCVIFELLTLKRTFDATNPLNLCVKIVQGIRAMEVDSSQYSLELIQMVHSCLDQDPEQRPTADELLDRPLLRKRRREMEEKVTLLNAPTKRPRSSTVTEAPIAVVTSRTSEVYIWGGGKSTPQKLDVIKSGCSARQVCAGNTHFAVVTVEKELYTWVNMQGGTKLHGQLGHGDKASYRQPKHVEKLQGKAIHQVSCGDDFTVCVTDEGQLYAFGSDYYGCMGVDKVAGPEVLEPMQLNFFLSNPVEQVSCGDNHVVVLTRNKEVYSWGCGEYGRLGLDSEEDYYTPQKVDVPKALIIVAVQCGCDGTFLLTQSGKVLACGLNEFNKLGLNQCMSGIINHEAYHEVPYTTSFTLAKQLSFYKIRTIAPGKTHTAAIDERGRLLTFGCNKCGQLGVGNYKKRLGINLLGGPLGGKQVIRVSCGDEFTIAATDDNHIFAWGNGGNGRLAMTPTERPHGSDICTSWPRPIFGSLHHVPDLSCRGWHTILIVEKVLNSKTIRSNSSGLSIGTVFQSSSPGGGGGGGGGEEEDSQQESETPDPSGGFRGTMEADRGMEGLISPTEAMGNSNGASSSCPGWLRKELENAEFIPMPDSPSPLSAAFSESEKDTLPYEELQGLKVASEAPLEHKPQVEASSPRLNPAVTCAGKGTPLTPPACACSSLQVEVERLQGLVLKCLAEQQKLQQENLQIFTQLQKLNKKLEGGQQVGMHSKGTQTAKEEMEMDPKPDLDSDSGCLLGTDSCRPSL
Kind of experiment: anti-HA immunoprecipitation from co-transfected HEK293 cells, anti-FLAG blot.

The target in a further experiment is Ran T24N (UniProt P62826 1-216). Briefly: co-expression and co-immunoprecipitation. The text has this:
(§1) To address more directly the relative binding in vivo of Nercc to Ran-GDP compared to Ran-GTP, the cytoplasmic wild type Nercc and a nuclear form of full length Nercc (NLS-Nercc) were each co-expressed with wild type Ran or Ran mutants that bind GDP (T24N) or GTP (G19V) exclusively; either Ran or Nercc was immunoprecipitated and probed for the association with the other polypeptide. The full-length wild type Nercc bound co-expressed wild type Ran and Ran T24N to a greater extent than RanG19V.

For a further experiment, the target named is Ran G19V (UniProt P62826 1-216). Briefly: co-expression and co-immunoprecipitation.
Excerpt: as §1

The target of experiment [2] is T2, endogenous Nercc1 kinase of human cells (p120) (human, UniProt Q8TD19 2-979).
T2 construct: Endogenous 120 kDa protein
T2 sequence: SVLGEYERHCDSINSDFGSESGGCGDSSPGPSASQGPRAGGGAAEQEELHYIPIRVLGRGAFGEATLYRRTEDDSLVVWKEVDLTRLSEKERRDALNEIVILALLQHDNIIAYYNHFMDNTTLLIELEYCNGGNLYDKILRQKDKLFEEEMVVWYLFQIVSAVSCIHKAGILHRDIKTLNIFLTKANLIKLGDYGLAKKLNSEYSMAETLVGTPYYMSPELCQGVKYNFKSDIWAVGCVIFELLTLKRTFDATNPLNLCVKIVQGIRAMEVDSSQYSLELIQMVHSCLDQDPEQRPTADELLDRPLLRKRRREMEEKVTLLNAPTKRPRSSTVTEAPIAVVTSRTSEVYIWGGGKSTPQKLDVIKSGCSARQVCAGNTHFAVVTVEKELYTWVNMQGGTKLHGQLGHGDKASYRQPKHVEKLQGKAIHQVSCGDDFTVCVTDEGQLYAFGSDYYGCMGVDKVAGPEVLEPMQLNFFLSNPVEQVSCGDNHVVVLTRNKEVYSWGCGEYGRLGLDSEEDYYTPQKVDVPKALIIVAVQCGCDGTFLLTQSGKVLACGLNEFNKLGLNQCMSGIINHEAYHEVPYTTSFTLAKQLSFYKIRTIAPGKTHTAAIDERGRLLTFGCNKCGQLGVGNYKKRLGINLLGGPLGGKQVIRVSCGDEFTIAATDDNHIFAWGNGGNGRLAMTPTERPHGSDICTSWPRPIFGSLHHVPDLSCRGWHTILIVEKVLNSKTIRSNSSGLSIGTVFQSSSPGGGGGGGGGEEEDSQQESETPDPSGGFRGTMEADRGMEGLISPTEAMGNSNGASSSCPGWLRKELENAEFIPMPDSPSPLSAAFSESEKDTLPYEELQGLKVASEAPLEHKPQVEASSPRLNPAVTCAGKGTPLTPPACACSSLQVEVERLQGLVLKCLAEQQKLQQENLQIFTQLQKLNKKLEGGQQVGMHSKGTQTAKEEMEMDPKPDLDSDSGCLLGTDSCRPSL
Kind of experiment: anti-FLAG immunoaffinity purification from HEK293 cells; associated band identified by mass spectrometry. An excerpt: Immunoaffinity purification of a FLAG Nek6 polypeptide overexpressed in HEK293 cells results in the recovery of an associated 120 kilodalton (kDa) polypeptide (p120). […] The 120 kDa band was excised, subjected to tryptic digestion in situ, microcapillary reverse-phase HPLC and peptide sequence analysis by electrospray ionization mass spectrometry. Spectra corresponding to multiple peptide sequences were identified on each of three successive open reading frames (ORFs) predicted by […] (Burge et al., J. Mol. Biol., 268: 78-94 (1997)) on the human BAC clone 201F1 (AC007055). […] Further analysis of the genomic sequences including and surrounding all three ORFs, using both […] (Borodovsky et al., Computers and Chem., 17: 123-133 (1993)) or […] yielded predictions containing all three original ORFs (AAD31938, AAD31939 and AAD31940) in polypeptides of around 100 kDa (107 kDa and 91 kDa, respectively).

B1: FLAG Nercc (full-length wild type Nercc1 kinase with FLAG epitope tag) (enzyme)
chain: MDYKDDDDKMSVLGEYERHCDSINSDFGSESGGCGDSSPGPSASQGPRAGGGAAEQEELHYIPIRVLGRGAFGEATLYRRTEDDSLVVWKEVDLTRLSEKERRDALNEIVILALLQHDNIIAYYNHFMDNTTLLIELEYCNGGNLYDKILRQKDKLFEEEMVVWYLFQIVSAVSCIHKAGILHRDIKTLNIFLTKANLIKLGDYGLAKKLNSEYSMAETLVGTPYYMSPELCQGVKYNFKSDIWAVGCVIFELLTLKRTFDATNPLNLCVKIVQGIRAMEVDSSQYSLELIQMVHSCLDQDPEQRPTADELLDRPLLRKRRREMEEKVTLLNAPTKRPRSSTVTEAPIAVVTSRTSEVYIWGGGKSTPQKLDVIKSGCSARQVCAGNTHFAVVTVEKELYTWVNMQGGTKLHGQLGHGDKASYRQPKHVEKLQGKAIHQVSCGDDFTVCVTDEGQLYAFGSDYYGCMGVDKVAGPEVLEPMQLNFFLSNPVEQVSCGDNHVVVLTRNKEVYSWGCGEYGRLGLDSEEDYYTPQKVDVPKALIIVAVQCGCDGTFLLTQSGKVLACGLNEFNKLGLNQCMSGIINHEAYHEVPYTTSFTLAKQLSFYKIRTIAPGKTHTAAIDERGRLLTFGCNKCGQLGVGNYKKRLGINLLGGPLGGKQVIRVSCGDEFTIAATDDNHIFAWGNGGNGRLAMTPTERPHGSDICTSWPRPIFGSLHHVPDLSCRGWHTILIVEKVLNSKTIRSNSSGLSIGTVFQSSSPGGGGGGGGGEEEDSQQESETPDPSGGFRGTMEADRGMEGLISPTEAMGNSNGASSSCPGWLRKELENAEFIPMPDSPSPLSAAFSESEKDTLPYEELQGLKVASEAPLEHKPQVEASSPRLNPAVTCAGKGTPLTPPACACSSLQVEVERLQGLVLKCLAEQQKLQQENLQIFTQLQKLNKKLEGGQQVGMHSKGTQTAKEEMEMDPKPDLDSDSGCLLGTDSCRPSL
notes: Expressed in HEK293 cells; also called FLAG Nercc1; FLAG Nercc full length (FL)
In the case of B1, the binding result in experiment [1] is “binds”.

B2: FLAG Nercc (1-891) (enzyme)
chain: MDYKDDDDKMSVLGEYERHCDSINSDFGSESGGCGDSSPGPSASQGPRAGGGAAEQEELHYIPIRVLGRGAFGEATLYRRTEDDSLVVWKEVDLTRLSEKERRDALNEIVILALLQHDNIIAYYNHFMDNTTLLIELEYCNGGNLYDKILRQKDKLFEEEMVVWYLFQIVSAVSCIHKAGILHRDIKTLNIFLTKANLIKLGDYGLAKKLNSEYSMAETLVGTPYYMSPELCQGVKYNFKSDIWAVGCVIFELLTLKRTFDATNPLNLCVKIVQGIRAMEVDSSQYSLELIQMVHSCLDQDPEQRPTADELLDRPLLRKRRREMEEKVTLLNAPTKRPRSSTVTEAPIAVVTSRTSEVYIWGGGKSTPQKLDVIKSGCSARQVCAGNTHFAVVTVEKELYTWVNMQGGTKLHGQLGHGDKASYRQPKHVEKLQGKAIHQVSCGDDFTVCVTDEGQLYAFGSDYYGCMGVDKVAGPEVLEPMQLNFFLSNPVEQVSCGDNHVVVLTRNKEVYSWGCGEYGRLGLDSEEDYYTPQKVDVPKALIIVAVQCGCDGTFLLTQSGKVLACGLNEFNKLGLNQCMSGIINHEAYHEVPYTTSFTLAKQLSFYKIRTIAPGKTHTAAIDERGRLLTFGCNKCGQLGVGNYKKRLGINLLGGPLGGKQVIRVSCGDEFTIAATDDNHIFAWGNGGNGRLAMTPTERPHGSDICTSWPRPIFGSLHHVPDLSCRGWHTILIVEKVLNSKTIRSNSSGLSIGTVFQSSSPGGGGGGGGGEEEDSQQESETPDPSGGFRGTMEADRGMEGLISPTEAMGNSNGASSSCPGWLRKELENAEFIPMPDSPSPLSAAFSESEKDTLPYEELQGLKVASEAPLEHKPQVEASSPRLNPAVTCAGKGTPLTPPACA
With B2, in experiment [1], the binding result is given as “no binding”.

B3: Nercc (338-739) fused to the Nercc NLS (other)
chain: PIAVVTSRTSEVYIWGGGKSTPQKLDVIKSGCSARQVCAGNTHFAVVTVEKELYTWVNMQGGTKLHGQLGHGDKASYRQPKHVEKLQGKAIHQVSCGDDFTVCVTDEGQLYAFGSDYYGCMGVDKVAGPEVLEPMQLNFFLSNPVEQVSCGDNHVVVLTRNKEVYSWGCGEYGRLGLDSEEDYYTPQKVDVPKALIIVAVQCGCDGTFLLTQSGKVLACGLNEFNKLGLNQCMSGIINHEAYHEVPYTTSFTLAKQLSFYKIRTIAPGKTHTAAIDERGRLLTFGCNKCGQLGVGNYKKRLGINLLGGPLGGKQVIRVSCGDEFTIAATDDNHIFAWGNGGNGRLAMTPTERPHGSDICTSWPRPIFGSLHHVPDLSCRGWHTILIVEKVLNSKTIRSNSSG
notes: also called Nercc RCC1 domain directed to the nucleus; not shown: Nercc NLS
As to B3, the binding result with Ran T24N and in the experiment with Ran G19V was “no binding” each time.

B4: FLAG Nercc (338-739) (other)
chain: MDYKDDDDKPIAVVTSRTSEVYIWGGGKSTPQKLDVIKSGCSARQVCAGNTHFAVVTVEKELYTWVNMQGGTKLHGQLGHGDKASYRQPKHVEKLQGKAIHQVSCGDDFTVCVTDEGQLYAFGSDYYGCMGVDKVAGPEVLEPMQLNFFLSNPVEQVSCGDNHVVVLTRNKEVYSWGCGEYGRLGLDSEEDYYTPQKVDVPKALIIVAVQCGCDGTFLLTQSGKVLACGLNEFNKLGLNQCMSGIINHEAYHEVPYTTSFTLAKQLSFYKIRTIAPGKTHTAAIDERGRLLTFGCNKCGQLGVGNYKKRLGINLLGGPLGGKQVIRVSCGDEFTIAATDDNHIFAWGNGGNGRLAMTPTERPHGSDICTSWPRPIFGSLHHVPDLSCRGWHTILIVEKVLNSKTIRSNSSG
notes: also called Nercc RCC1 domain; Nercc RCC1-like domain
B4: the binding result with Ran T24N and with Ran G19V was “no binding” each time.

B5: FLAG Nek6 (enzyme)
chain: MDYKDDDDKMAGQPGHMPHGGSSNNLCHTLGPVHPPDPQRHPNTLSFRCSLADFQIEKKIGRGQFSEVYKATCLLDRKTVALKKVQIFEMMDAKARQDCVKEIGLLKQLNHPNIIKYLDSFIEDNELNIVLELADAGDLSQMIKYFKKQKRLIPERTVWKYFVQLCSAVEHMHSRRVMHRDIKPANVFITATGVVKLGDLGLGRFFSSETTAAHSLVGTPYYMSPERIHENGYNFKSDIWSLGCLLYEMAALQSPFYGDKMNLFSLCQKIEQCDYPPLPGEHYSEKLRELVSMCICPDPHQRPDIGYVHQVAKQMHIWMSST
notes: Expressed in HEK293 cells; runs as a doublet (phosphorylated and unphosphorylated); also called wild type FLAG Nek6
As for B5, the binding result in experiment [2] is given as “binds”.

The values above are taken from patent US20060052582A1 (published 2006).
